Reference: patent publication US9199028B2, “Use of entrained neutrophils to treat metastatic and micrometastatic disease in at risk patients” (MEMORIAL SLOAN-KETTERING CANCER CENTER, priority 2010, dated 2015)
Entries after “also recorded” stand apart in the source; their conditions may differ.

Tests used:
neutrophils = experiment: In vivo rhG-CSF administration (neutrophil mobilization and lung sequestration); parameters: species or system mouse; settings: mice
Procedure: Mice were orthotopically injected with 5×10^6 luciferase labelled 4T1 cells. 24 hours later Apocynin (2.4 g/liter) was administered in sugar sweetened drinking water. Control animals were treated with sugar sweetened water. Drinking water for both Apocynin treated and control mice were replaced every two days. Time-Lapse Microscopy 20,000 4T1 cells were labelled with CellTracker-Red (molecular Probes) according to the manufacturer instructions and plated on a chamber slide. 4 hours later, 400,000 neutrophils, isolated from 4T1 tumour-bearing Balb/c Ube-GFP mice, were added to the culture. Live imaging of Caspase 3 activation was done by labelling the tumour cells with the Caspase 3 substrate NucView 488 (Biotium) prior to the addition of GFP negative TENs. Images were taken every 10 minutes using the MetaMorph imaging system. Neutrophil Transfer Female nude mice were injected with 5×10^4 luciferase labelled 4T1 cells to the tail vein. 4 hours later, the mice were injected with 5×10^6 TENs or G-CSF mobilized neutrophils into the tail vein. Control mice were injected with vehicle. Formation of lung metastases was monitored using the IVIS-200 optical in vivo imaging system. Chemokine Administration rhG-CSF (Neupogen, Amgen) was administered daily (250 microg/kg/day) s.c. for 4 consecutive days. In vitro neutrophil stimulation—neutrophils were isolated from naïve mice and co-cultured with tumour cells in the presence of mCCL2, mCCL5 (both from R&D) or rhG-CSF (all at 20 ng/ml) or with TGF-Beta (R&D) (up to 200 pMolar). Human neutrophils purified from healthy volunteers were stimulated in vitro with hCCL2, hCCL5, hCCL3, hCCL4, hCXCL1, hCXCL12 and hCXCL16 (all from R&D at 100 ng/ml) or with rhG-CSF (20 ng/ml). Statistical Analysis For statistical analysis, the data is presented as mean±SEM and were analyses using Students t tests. Differences were considered significant when p<0.05.
In vivo administration of Apocynin: Mice were orthotopically injected with 5×10^6 luciferase labelled 4T1 cells. […] Formation of lung metastases was monitored using the IVIS-200 optical in vivo imaging system. […]

4T1 cells = experiment: In vitro killing assay: naïve mouse neutrophils co-cultured with luciferase labelled 4T1 cells in the presence of chemokines; format: cell-based; settings: naïve mouse neutrophils co-cultured with 4T1 cells, chemokine 20 ng/ml, overnight
Text: Antibodies used for immunohistochemistry—MMP9, F4/80 and CCR2 (all from AbCam), Myeloperoxidase (Dako), Ly-6G and Cd11b (both from BD), and Cleaved Caspase 3 (Cell signalling). Antibodies used for western blotting—Actin (Sigma), CCL2 (AbCam) and CCL5 (R&D) p-SMAD2 (cell signalling). Antibodies used for FACS analysis FITC-Ly-6G, FITC-Cd11b, FITC-F4/80, FITC-Cd34 and FITC-c-Kit (all from BD) and VEGFR1-AP (R&D). Neutrophil Depletion Neutrophil depletion was achieved using daily IP injections of 12.5 μg Rat anti-Gr-1 antibody (BD) or Rat anti-Ly-6G antibody (BD) starting on day 3 post tumour engraftment. Starting on day 14, neutrophil depleting antibodies were administered twice daily. Control mice were injected with […] Rat isotype control (BD). Neutrophil depletion was monitored by manual blood differentials and FACS analysis. Flow Cytometry Peripheral blood was collected into EDTA-coated tubes, washed and resuspended in FACS buffer solution (PBS, 2% heat-inactivated FCS, 5 mM EDTA, and 0.02% sodium azide). The samples were blocked with […] and then incubated with fluorophore-conjugated antibodies. Erythrocytes were then lysed with FACS lysing solution (BD Biosciences) and the cell suspensions were analyzed on a FACSCalibur (BD Biosciences). Colony Formation Assay Female nude mice were orthotopically injected with 5×10^6 puromicin resistant 4T1 cells. On days 7 and 14 post tumour engraftment the mice were sacrificed and perfused with PBS. The lungs and livers were removed, washed with PBS and dissociated with Collagenase A (Roche). The single cell suspension was then plated onto puromicin containing media and selected for 14 day. Colonies were stained with Methylene-Blue and counted manually. Mouse Neutrophil Purification Whole blood was collected by cardiac puncture using heparinized (Sigma) syringe. The blood was diluted with 5 volumes of PBS containing 0.5% BSA and subjected to a discontinuous Histopaque (Sigma) gradient (1.077 and 1.119). Neutrophils were collected from the 1.077-1.119 interface, lymphocytes and monocytes collected from the plasma-1.077 interface. RBCs were eliminated by hypotonic lysis. The cells were washed twice with PBS-BSA and re-suspended in OptiMEM (Invitrogen) 0.5% FBS in a final concentration of 2×10^6 cells/ml. Neutrophil purity and viability were determined visually and were consistently >98%. Human Neutrophil Purification As part of a Memorial Sloan-Kettering Cancer Center institutionally approved protocol, blood samples (˜10 cc) were collected from healthy volunteers or from patients who were already having blood drawn for pre-surgical testing. Patients were consented accordingly as part of the approved protocol. […] Patients had either mastectomies or lumpectomies planned and had blood drawn prior to definitive surgical removal of their primary tumor or chemotherapy. Blood samples were transferred to the lab for analysis no more than 1 hour post-blood draw. Heparinzed blood (20 U/ml final) was mixed with an equal volume of Dextran 500 (3% in saline) and incubated 30 minutes at room temperature. The leukocyte-rich supernatant was layered on top of histopaque 1077 (Sigma) and centrifuged. Neutrophils, collected in the pellet fraction, were resuspended in 10 ml 0.2% NaCl for 30 seconds to remove contaminating erythrocytes. Isotonicity was restored by the addition of 10 ml 1.6% NaCl. Neutrophils were than washed three times in Hanks's balanced salt solution and resuspended in RPMI+FCS2%. In vitro Killing Assay Luciferase labelled cells (5,000/well) were plated on a 96-well, flat bottom white polystyrene tissue culture plate in OptiMEM 0.5% FBS (mouse neutrophils) or RPMI 2% FBS (human neutrophils). 4 hours later, purified neutrophils (100,000/well for mouse neutrophils and 5000 for human neutrophils) were added to the plated tumour cells and co-cultured overnight. […]

B1: rhG-CSF: recombinant methionyl human granulocyte colony-stimulating factor (Neupogen, Amgen) (protein, chains of the INN, looked up)
chain: MTPLGPASSLPQSFLLKCLEQVRKIQGDGAALQEKLCATYKLCHPEELVLLGHSLGIPWAPLSSCPSQALQLAGCLSQLHSGLFLYQGLLQALEGISPELGPTLDTLQLDVADFATTIWQQMEELGMAPALQPTQGAMPAFASAFQRRAGGVLVASHLQSFLEVSYRVLRHLAQP
modifications: N-terminal methionine
neutrophils; 250 μg/kg/day s.c.
  circulating neutrophils after rhG-CSF administration: significant increase in circulating and lung-associated neutrophils; also recorded: significant increase in circulating and lung-associated neutrophil numbers
neutrophils; 250 ug/kg/day s.c. for 4 consecutive days
  increase of circulating neutrophil numbers: 2-4 fold
neutrophils; rhG-CSF administration
  lung-associated neutrophils (Ly-6G or myeloperoxidase immunohistochemistry): increase in lung-associated neutrophils
4T1 cells
  neutrophil mediated killing of 4T1 cells (tumor cell viability by luciferase activity): does not induce neutrophil mediated cell killing; also recorded: does not induce a cytotoxic neutrophil response; also recorded: did not induce a cytotoxic neutrophil response in vitro
4T1 cells; listed as G-CSF
  neutrophil mediated killing of 4T1 cells (tumor cell viability by luciferase activity): no significant effect on tumor-cell viability
